According to US8318918B2, “Chalcone 3-hydroxylase” (Technische Universitat Wien, priority 2009, dated 2012):

Tests used:
[1] = system: recombinant CH3H from Cosmos sulphureus; assay: Enzyme assay and kinetic studies of recombinant CH3H with 14C-labelled substrates; type: biochemical; conditions: recombinant enzyme from the Cosmos sulphureus cDNA clone expressed in yeast
Source text: Heterologous Expression in Yeast For the heterologous expression, the proofreading amplicons were ligated into the yeast expression vector pYES2.1/V5-His-TOPO® (Invitrogen, UK) and transformed into E. coli TOP10F′ (Invitrogen, UK). The identification of the sense constructs took place with a PCR, for which a gene-specific forward and a plasmid-specific reverse primer was used. Sense constructs were isolated and the correct sequence confirmed by sequencing. Desired plasmids were then transformed into the yeast strain INVSc 1 (Invitrogen, UK). The heterologous expression was performed according to methods known in science, and the prepared proteins were shock-frozen in liquid nitrogen and stored at −80° C. […]
(§1) In order to determine the substrate specificity of the heterologously expressed F3′Hs, the following enzyme tests were performed: 20 μg of the recombinant wild-type CH3H or 50 μg of the hybrid proteins, respectively, were incubated with 0.25 nmol [14C]-marked chalcone or flavonoid substrates in the presence of 10 mM NADPH and 0.1 M KH2PO4—K2HPO4 (with 0.4% Na-ascorbate, pH: 7.5) buffer at 30° C. […] Detection and quantification of radioactivity took place using TLC analysis.
Kinetic data (apparent Michaelis constant (Km) and maximum speed of reaction (Vmax)) were determined using Lineweaver Burk plots.

[2] = F3′H activity (substrate acceptance) of heterologously expressed native, chimeric and mutated enzymes; type: biochemical, Cosmos sulphureus; conditions: recombinant enzymes expressed in yeast
Source text: (§2) Heterologous Expression in Yeast For the heterologous expression, the proofreading amplicons were ligated into the yeast expression vector pYES2.1/V5-His-TOPO® (Invitrogen, UK) and transformed into E. coli TOP10F′ (Invitrogen, UK). The identification of the sense constructs took place with a PCR, for which a gene-specific forward and a plasmid-specific reverse primer was used. Sense constructs were isolated and the correct sequence confirmed by sequencing. Desired plasmids were then transformed into the yeast strain INVSc 1 (Invitrogen, UK). The heterologous expression was performed according to methods known in science, and the prepared proteins were shock-frozen in liquid nitrogen and stored at −80° C. The determination of the amount of protein in the preparations was performed according to a modified Lowry method.
as §1

[3] = CH3H activity (hydroxylation of chalcones) of heterologously expressed native, chimeric and mutated enzymes; type: biochemical, Cosmos sulphureus; conditions: recombinant enzymes expressed in yeast
Source text: as §2, §1

O=C(/C=C/c1ccc(O)cc1)c1ccc(O)cc1O [Iso, isoliquiritigenin]
catalytic CH3H activity with substrate [1]: high catalytic CH3H activities

B1: F3′H: recombinant F3′H from Cosmos sulphureus (Accession No.: FJ216426), tested as a comparison (protein, listed as Cosmos sulphureus)
chain: MTILPLLLYPSLTALLLYVLLNLRPRHPNRLPPGPSPWPIVGNLPHLGTTPHHSLAALAAKYGPLMHLRLGFVDVVVAASASVASQFLKTHDANFASRPPNSGAEHMAYNYQDLVFAPYGPRWRMLRKICSVHLFSGKALDDFRHVRQEEVAVLTRALAGAGKSPVKLGQLLSVCTTNALARVMLGRRVFGERDAKADEFKDMVVEMMVLAGEFNIGDFIPALDWLDLQGITKKMKKLHAQFDSFLNTILEEHKTGKGGSSSHRDLSSTLIALKDDADGEGGKLSDIEIKALLLNLFIAGTDTSSSTVEWAIAELIRCPQILRQAHEEMDNVVGRERLVTESDLGKLTFLQAIVKETFRLHPSTPLSLPRIASESCEIDGYFIPKGSTLLVNVWAIARDPKMWTDPLEFRPTRFLPGGEKPNVDVKGNDFEVIPFGAGRRICVGISLGLRMVQLLVATLVQTFDWELANGVLPEKLNMNEAFGLTLQRAEPLIVYPKPRLAPHVYESG
F3′H activity [2]: confirmed the F3′H activity
CH3H activity (hydroxylation of chalcones) [3]: lacking CH3H activity
